Source: patent US20200025774A1 (ENTEROME S A, published 2020)

Molecular target: T1, HLA-A*0201 molecule expressed on human T2 cells (human)
T1 construct: also called HLA.A2.01
Test: T2 cell HLA-A*0201 stabilisation assay, flow cytometry; ratio of the peptide concentrations inducing 20% of HLA-A*0201 expression
Method: T2 cells (2.10⁵ cells per well) were incubated with decreasing concentrations of peptides from 100 μM to 0.1 μM in a AIMV medium supplemented with 100 ng/μl of human β2m at 37° C. for 16 hours.
The analysis was performed by FACS (Guava Easy Cyte). […] The relative affinity is then determined as follows:

| Binder | In vitro binding affinity (relative affinity against reference peptide HIV pol 589-597) |
| --- | --- |
| ILPFGFILA [peptide 1I9A] | 2.22 |
| ALPFGFILV [peptide 1A9V] | 3.06 |
| FLPFGFILM [peptide 1F9M] | 2.62 |
